Paper PMC5004290, “Mapping an epitope in EBNA‐1 that is recognized by monoclonal antibodies to EBNA‐1 that cross‐react with dsDNA” (Immunity, Inflammation and Disease, 2016)
No end group written: not given here. *: point of attachment. Biotin = O=C1N[C@H]2[C@H](CS[C@H]2CCCCC(=O)*)N1

Legend:
[1] = target: T1, Peptide GL-15 of EBNA-1 (aa 552-566) (Epstein-Barr virus (strain B95-8) …); test: ELISA; anti-peptide ELISA; biotinylated peptide (100 μg/ml), or mole equivalents of biotinylated PFM-15 and biotinylated EBNA-1, on streptavidin coated plates; 3D4 at 5 μg/ml in PBS, 0.1% BSA, 1 h at 37°C; details: both partners purified
T1 construct: EBNA-1 of Epstein Barr virus, aa 552-566; it is surmised from the streptavidin format of the peptide ELISA; source: synthetic peptide
T1 chain: GPLRESIVCYFMVFL

[2] = target: IgM monoclonal antibody 16D2 to EBNA-1 (mouse); test: ELISA; peptide inhibition ELISA; 16D2 (5 μg/ml) incubated with 0.1 μg/ml to 1 mg/ml of peptide, then transferred to EBNA-1 coated plates, 1 h at 37°C
[3] = target: IgM monoclonal antibody 16D2 to EBNA-1 (mouse); test: ELISA; peptide inhibition ELISA; 16D2 (5 μg/ml) pre-incubated 1 h at 37°C with 0.1 to 100 μg/ml of peptide, then transferred to dsDNA coated plates, 2 h at 37°C

IgM monoclonal antibody 16D2 to EBNA-1 (mouse), sequence (heavy, as listed by the source): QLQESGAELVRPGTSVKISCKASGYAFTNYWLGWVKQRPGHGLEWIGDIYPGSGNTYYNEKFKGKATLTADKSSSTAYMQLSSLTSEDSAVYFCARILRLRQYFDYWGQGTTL

B1: IgG monoclonal antibody 3D4 to EBNA-1 (antibody, V domains shown)
VH: LQESGGGLVKPGGSLKLSCAASGFAFSSYDMSWVRQTPEKRLEWVATISSGGSYIYYPDSVKGRFTISRDNARNTLYLQMSSLRSEDTALYYCARPPPFYFDYWGQGTTLTVSS
VL: TQSPLSLPVSLGEQASISCRSSQSLVHSNGNTYLHWYLQKPGQSPKLLIYKVSNRFSGVPDRFSGSGSGTDFTLKISRLEAEDLGFYFCSQTTHVPWTFGGGTK
notes: gamma heavy chain, germline VH7183.14, JH2, 3 mutations; kappa light chain, germline bb1, JK1, 5 mutations; Mouse IgG1 kappa; also called MAb 3D4; source: hybridoma from an EBNA-1 injected mouse; IgG MAbs purified on protein G sepharose columns
- binding result [1]: binds

B2: Peptide PFM-15 of EBNA-1 (aa 549-563) (peptide)
peptide: Biotin-PQPGPLRESIVCYFM
- percent inhibition of binding to EBNA-1 at 100 μg/ml of peptide [2]: 70%
- percent inhibition of binding to dsDNA at 100 μg/ml of peptide [3]: 60%
